Molecular target: Recombinant His-tagged CYFIP2-N (aa 1–624) (mouse, UniProt Q5SQX6 1-624)
Test: pull-down

Sequence of Recombinant His-tagged CYFIP2-N (aa 1–624) (Q5SQX6 1-624): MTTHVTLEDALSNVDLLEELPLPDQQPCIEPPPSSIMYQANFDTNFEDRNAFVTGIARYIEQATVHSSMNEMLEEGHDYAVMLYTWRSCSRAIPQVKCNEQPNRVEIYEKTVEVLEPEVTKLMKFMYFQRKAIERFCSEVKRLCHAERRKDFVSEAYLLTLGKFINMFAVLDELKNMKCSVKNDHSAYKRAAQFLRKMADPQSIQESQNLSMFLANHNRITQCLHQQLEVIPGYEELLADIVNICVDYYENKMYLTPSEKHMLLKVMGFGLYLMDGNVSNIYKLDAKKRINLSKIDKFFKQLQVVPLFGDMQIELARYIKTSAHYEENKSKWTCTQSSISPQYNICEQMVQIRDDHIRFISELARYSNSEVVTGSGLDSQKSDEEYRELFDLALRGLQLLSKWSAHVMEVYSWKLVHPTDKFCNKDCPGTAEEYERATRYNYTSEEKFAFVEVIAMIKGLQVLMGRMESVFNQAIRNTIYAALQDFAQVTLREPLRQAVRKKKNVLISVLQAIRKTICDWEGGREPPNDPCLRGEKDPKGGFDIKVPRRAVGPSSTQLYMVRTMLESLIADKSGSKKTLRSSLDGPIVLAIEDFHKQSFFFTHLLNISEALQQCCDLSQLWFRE

B1: C-terminus of retrolinkin (RTLN-C, aa 489–574) fused to GST (domain or fragment, mouse, UniProt Q8BHE4 489-574, looked up)
chain: CCMRRKKKTANPENNLSYWNNAITMDYFNRHAVELPREIQSLETSEDQLSEPRSPANGDYRDTGMVLVNPFCQETLFVGNDQVSEI
- binding result: binds
